# T1: AtTGA2 (6xHis-HRV3C-AtTGA2-HiBiT, plasmid pEPQDKN0742) (UniProt P43273 1-330)
# T1 sequence: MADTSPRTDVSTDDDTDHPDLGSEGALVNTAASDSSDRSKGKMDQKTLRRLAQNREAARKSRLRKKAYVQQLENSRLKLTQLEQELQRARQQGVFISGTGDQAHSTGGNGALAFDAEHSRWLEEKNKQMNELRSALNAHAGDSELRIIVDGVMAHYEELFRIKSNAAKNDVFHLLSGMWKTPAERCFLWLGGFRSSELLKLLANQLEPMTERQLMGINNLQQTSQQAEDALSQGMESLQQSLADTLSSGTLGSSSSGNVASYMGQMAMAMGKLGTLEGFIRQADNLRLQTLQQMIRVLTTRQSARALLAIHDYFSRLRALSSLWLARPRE
# B1: TGA TFBS probe (dsDNA)
# DNA 1: GACCCCTATTGCAGCTATTTCACCTGACGTAAGGGATGACGCACAGGCCATCACGCAGTA
# DNA 2: TACTGCGTGATGGCCTGTGCGTCATCCCTTACGTCAGGTGAAATAGCTGCAATAGGGGTC
# B2: Random control probe (dsDNA)
# DNA 1: GACCCCTATTGCAGCTATTTCACACATACCAACGCTTAGCGCAATGGCCATCACGCAGTA
# DNA 2: TACTGCGTGATGGCCATTGCGCTAAGCGTTGGTATGTGTGAAATAGCTGCAATAGGGGTC
# Target: T1, AtTGA2 (6xHis-HRV3C-AtTGA2-HiBiT, …)
# Assay: EMSA; 500 ng poly(dI-dC); 20 mM Tris-HCl pH 8.0, 50 mM KCl, 2 mM DTT, 1 mM EDTA, 500 ng poly(dI-dC), 5% glycerol, 0.05% IGEPAL CA630, 0.1 mg/ml BSA; about 500 pmol protein, 5.5 pmol probe; room temperature 1 h; 6% TBE gel
# Details: protein: ivt; tags: N-terminal NET-6xHis-HRV3C (as described for plasmid); C-terminal HiBiT; label: Alexa-488 at 5' end of the complementary strand (Klenow extension of labelled primer S3); blunt
row,Binder,binding result
1,B1,binds
2,B2,no binding
